Experiment [1] concerns the target RNC bearing the nascent chain of firefly luciferase (firefly) [luciferase: P08659]. As to the kind of experiment: fluorescence polarisation. For orientation: Polarisation of emitted light reports the rotation of a fluorescent probe.
Experiment [2] deals with RNC bearing the nascent chain of FtsQ (UniProt P06136). In words: fluorescence polarisation.
Experiment [3] concerns the target Cm-labeled RNC bearing the engineered signal sequence 1A9L. In words: FRET or BRET.
Experiment [4] addresses SRP(∆FL), SRP(C235) labeled with DACM or acrylodan (E. coli) (UniProt P0AGD7). As to the kind of experiment: time course of acrylodan fluorescence.

pKd: −log10 of the molar value. Where only a bound is given, the exact number is not on record here.

RNC bearing the nascent chain of FtsQ, sequence (P06136 whole entry, looked up): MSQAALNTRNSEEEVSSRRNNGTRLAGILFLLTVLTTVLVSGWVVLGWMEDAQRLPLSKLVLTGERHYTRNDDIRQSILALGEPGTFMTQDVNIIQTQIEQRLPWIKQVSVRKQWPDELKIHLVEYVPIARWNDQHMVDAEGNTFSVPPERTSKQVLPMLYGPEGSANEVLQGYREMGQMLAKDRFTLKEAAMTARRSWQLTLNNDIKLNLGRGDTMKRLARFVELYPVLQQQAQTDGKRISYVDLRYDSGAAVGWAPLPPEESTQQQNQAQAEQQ
RNC bearing the nascent chain of firefly luciferase (firefly) [luciferase: P08659], sequence (P08659 whole entry, looked up): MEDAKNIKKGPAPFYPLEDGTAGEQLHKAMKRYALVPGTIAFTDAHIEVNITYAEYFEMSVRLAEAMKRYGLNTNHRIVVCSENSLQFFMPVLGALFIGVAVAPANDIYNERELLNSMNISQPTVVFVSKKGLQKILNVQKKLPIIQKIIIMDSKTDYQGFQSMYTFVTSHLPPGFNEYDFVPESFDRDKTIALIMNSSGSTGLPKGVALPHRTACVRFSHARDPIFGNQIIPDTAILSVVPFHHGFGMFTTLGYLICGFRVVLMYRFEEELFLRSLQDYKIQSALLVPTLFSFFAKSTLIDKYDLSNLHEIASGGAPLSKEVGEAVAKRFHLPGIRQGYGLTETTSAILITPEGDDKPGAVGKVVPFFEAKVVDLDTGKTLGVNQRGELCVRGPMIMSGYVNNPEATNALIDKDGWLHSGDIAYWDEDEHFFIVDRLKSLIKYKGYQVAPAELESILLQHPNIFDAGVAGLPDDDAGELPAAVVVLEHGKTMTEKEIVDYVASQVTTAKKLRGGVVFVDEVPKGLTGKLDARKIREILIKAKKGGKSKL

Take “wild-type SRP with fluorescein-labeled Ffh(C421) (from UniProt P0AGD7 1-453) (complex)”: the pKd in experiment [1] is 6.89; in experiment [2] it was 8.77.
The substance “SRP(LM→AA) with fluorescein-labeled Ffh(C421) (from UniProt P0AGD7 1-453) (complex)” registered a fold change of Kd against wild-type SRP in experiment [2] of under 3 fold.
Still for that read-out and setting: with “SRP(∆FL) with fluorescein-labeled Ffh(C421) (from UniProt P0AGD7 1-453) (complex)” the figure was under 3 fold.
“SRP(LM→AA) with BODIPY-FL labeled at residue 421 of Ffh (from UniProt P0AGD7 1-453) (complex)” returned a fold weaker Kd (koff/kon) against wild-type SRP in experiment [3] of 6 fold.
Turning to “FtsY (from UniProt P10121 1-497) (receptor)”, in experiment [4], the fold slower dissociation rate constant against wild-type SRP came to 80 fold.
Turning to “SRP(∆FL) with BODIPY-FL labeled at residue 421 of Ffh (from UniProt P0AGD7 1-453) (complex)”, the fold weaker Kd (koff/kon) against wild-type SRP in experiment [3] worked out at 2 fold.

Broadly, the pKd is the negative decadic logarithm of the Kd, by convention in mol/L. High values mean a low Kd, low ones a high Kd.

Values taken from paper PMC3541965.
